Data from patent US20090191228A1.

Key:
[1] = target: dOVA-1 (ovalbumin misfolded by HCl treatment, 40 min 37 C, neutralized) (chicken) (UniProt P01012); assay: ELISA, immobilized OVA forms
[2] = target: cdH5-0 (dH5-0 supernatant after 10 min at 16,000-18,000*g) (influenza virus H5N1 strain A/Vietnam/1203/04)
[3] = target: fdH5-0 (ultrafiltrated dH5-0, flow-through of a 1,000 kDa cut-off filter) (influenza virus H5N1 strain A/Vietnam/1203/04)
[4] = target: dH5-II (cdH5-0 misfolded by heat cycling at pH 2) (influenza virus H5N1 strain A/Vietnam/1203/04)
[5] = target: cdH5-0 (dH5-0 supernatant after 10 min at 16,000-18,000*g) (influenza virus H5N1 strain A/Vietnam/1203/04); assay: ELISA, immobilized H5 forms, Fn F4-5 in solution; normalized to cdH5-0
[6] = target: fdH5-0 (ultrafiltrated dH5-0, flow-through of a 1,000 kDa cut-off filter) (influenza virus H5N1 strain A/Vietnam/1203/04); assay: as above
[7] = target: dH5-II (cdH5-0 misfolded by heat cycling at pH 2) (influenza virus H5N1 strain A/Vietnam/1203/04); assay: as above
[8] = target: dH5-III (cdH5-0 incubated about 16 h at 47.5 C) (influenza virus H5N1 strain A/Vietnam/1203/04); assay: as above
[9] = target: dH5-I (cdH5-0 misfolded by heat cycling at pH 7) (influenza virus H5N1 strain A/Vietnam/1203/04); assay: as above
[10] = target: nOVA (non-treated ovalbumin, 1 mg/ml in PBS) (chicken) (UniProt P01012); assay: ELISA, immobilized OVA forms, Fn F4-5 in solution; normalized to nOVA

**Q.** For “monoclonal anti-OVA IgG (A6075, Sigma) (antibody)”, which Scaled antibody binding (relative affinity kD, a.u.) [1] is on record?
**A.** 20.8 a.u.

**Q.** Which Bmax [2] does the source give for “tissue type plasminogen activator (tPA) (from UniProt P00750 36-562) (enzyme)” here?
**A.** 0.36

**Q.** What about the Kd [2] of the same substance?
**A.** 0.102 µM

**Q.** And the Bmax [3]?
**A.** 0.37

**Q.** And the Kd [3]?
**A.** 0.342 µM

**Q.** What about the Bmax [4] of the same substance?
**A.** 0.07

**Q.** And the Kd [4]?
**A.** 0.019 µM

**Q.** How did the Normalized affinity, kD (%) [5] turn out when “fourth and fifth finger domain of fibronectin (Fn F4-5) (from UniProt P02751 183-275)” was run?
**A.** 100%

**Q.** And the Normalized affinity, kD (%) [6]?
**A.** 69%

**Q.** And the Normalized affinity, kD (%) [7]?
**A.** 88%

**Q.** What about the Normalized affinity, kD (%) [8] of the same substance?
**A.** 6%

**Q.** And the Normalized affinity, kD (%) [9]?
**A.** 0%

**Q.** And the Normalized affinity, kD (%) [10]?
**A.** 100%
